4 substances from patent publication US20150132307A1 can be followed below.

In assay [1] the target is recombinant human IL-17 (Peprotech #200-17) (human) (UniProt Q16552). Description: cell-based or functional assay.
Assay [2] has the same target. As to the kind of experiment: ELISA, coated IL-17 subtype 0.5 µg/ml, antibody 10 µg/ml, OD 405/492 nm. In general terms: In an ELISA, binding on a coated surface is turned into a signal by an enzyme label.
Another assay deals with Human IL17C (human) (UniProt Q9P0M4). Description: ELISA, coated IL-17 subtype, antibody 10 µg/ml, OD 405/492 nm.
Sequence of Human IL17C (human) (Q9P0M4 19-197 limits assumed): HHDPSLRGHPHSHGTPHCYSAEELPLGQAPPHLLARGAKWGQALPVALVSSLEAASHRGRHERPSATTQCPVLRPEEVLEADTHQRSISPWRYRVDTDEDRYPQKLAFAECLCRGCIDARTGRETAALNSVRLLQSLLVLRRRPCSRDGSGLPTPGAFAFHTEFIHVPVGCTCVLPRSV
In the next assay the target is Human IL17B (human) (UniProt Q9UHF5). Described as above.
Sequence of Human IL17B (human) (Q9UHF5 21-180 limits assumed): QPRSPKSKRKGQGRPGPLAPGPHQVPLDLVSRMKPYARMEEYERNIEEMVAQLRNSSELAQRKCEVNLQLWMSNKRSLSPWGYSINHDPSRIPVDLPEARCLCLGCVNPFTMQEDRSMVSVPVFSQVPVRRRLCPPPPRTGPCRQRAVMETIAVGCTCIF
The target of a further assay is Human IL17E (human) (UniProt Q9H293). Described as above.
Sequence of Human IL17E (human) (Q9H293 33-177 limits assumed): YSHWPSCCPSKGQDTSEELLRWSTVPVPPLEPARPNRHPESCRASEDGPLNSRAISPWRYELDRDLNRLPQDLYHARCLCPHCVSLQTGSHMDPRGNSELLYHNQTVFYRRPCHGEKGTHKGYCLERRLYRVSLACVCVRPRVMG
For another assay, the target named is Human IL17D (human) (UniProt Q8TAD2). Described as above.
Sequence of Human IL17D (human) (Q8TAD2 16-202 limits assumed): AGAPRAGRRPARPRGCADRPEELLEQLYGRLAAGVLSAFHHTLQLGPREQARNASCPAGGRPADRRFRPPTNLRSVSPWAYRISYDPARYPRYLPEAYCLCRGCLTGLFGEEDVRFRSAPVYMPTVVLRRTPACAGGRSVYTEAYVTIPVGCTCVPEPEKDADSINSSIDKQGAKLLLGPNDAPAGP
The target in the next assay is Human IL17F (human) (UniProt Q96PD4). The description is as above.
Sequence of Human IL17F (human) (Q96PD4 31-163 limits assumed): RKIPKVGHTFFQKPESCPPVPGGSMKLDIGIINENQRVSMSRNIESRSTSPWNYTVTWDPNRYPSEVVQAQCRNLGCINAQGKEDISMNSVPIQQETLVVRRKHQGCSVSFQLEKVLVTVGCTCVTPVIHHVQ
Assay [3] deals with recombinant human IL-17 (Peprotech #200-17) (human) (UniProt Q16552). Description: binding ELISA according to example 2; human and humanized IL17 antibodies compared (NVP-AIN-497 = 100).
Assay [4] has as its target cynomolgous IL-17A (cynomolgous). The description is as above.
Assay [5] addresses recombinant human IL-17 (Peprotech #200-17) (human) (UniProt Q16552). As to the kind of experiment: binding ELISA according to example 2; mouse IL17 antibodies compared (Mab 317 = 100).
Assay [6] has as its target cynomolgous IL-17A (cynomolgous). The assay is described as above.

Sequence of recombinant human IL-17 (Peprotech #200-17) (human) (Q16552 20-155 limits assumed): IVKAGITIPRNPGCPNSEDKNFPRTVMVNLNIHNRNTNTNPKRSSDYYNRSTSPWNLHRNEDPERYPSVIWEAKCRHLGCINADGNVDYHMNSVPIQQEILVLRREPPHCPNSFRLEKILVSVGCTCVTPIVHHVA

Turning to MAB 317 of R&D Systems (antibody), in [1], the IL-6 Inhibition IC50 (nM) (CCD-25SK cells, IL-17A + TNF-alpha) stood at 2.8 nM. Also, the Binding (IL-17A binding set as 100) (% of IL-17A binding) in assay [2] amounted to 100.

“Mab 16-7178-85 of eBioscience (antibody)”: the Binding (IL-17A binding set as 100) (% of IL-17A binding) in assay [2] amounted to 100; in the assay with Human IL17C (human) it was 97; in the assay with Human IL17B (human) it was 7; with Human IL17E (human), 5; in the assay with Human IL17D (human) it was 6; with Human IL17F (human), 5.

NVP-AIN-497 (WO 2006/013107) (antibody): the Binding (IL-17A binding set as 100) (% of IL-17A binding) worked out at 100 in assay [2]; 2 with Human IL17C (human); 2 with Human IL17B (human); 3 with Human IL17E (human); 62 with Human IL17F (human). For the same substance, in assay [3], the Relative binding to human IL-17A came out at 100%. For the same substance, the Relative binding to cynomolgous IL-17A in assay [4] is 100%.

For eBio64CAP17 (antibody), in assay [5], the Relative binding to human IL-17A in % came to 122%. This substance came in with a Relative binding to cynomolgous IL-17A in % in [6] of 124%.
